Data: US20220387557A1 (OXFORD UNIVERSITY INNOVATION, published 2022)

Tests used:
[1] = target: T1, Fc tagged human TNFR2 (Sino Biological) (human, UniProt P20333 23-257); test: phage binding test on Fc tagged receptor
T1 construct: Bought reagent; also called hTNFR2; hTNFR2-Fc; not shown: Fc tag of the bought protein
T1 sequence (looked up): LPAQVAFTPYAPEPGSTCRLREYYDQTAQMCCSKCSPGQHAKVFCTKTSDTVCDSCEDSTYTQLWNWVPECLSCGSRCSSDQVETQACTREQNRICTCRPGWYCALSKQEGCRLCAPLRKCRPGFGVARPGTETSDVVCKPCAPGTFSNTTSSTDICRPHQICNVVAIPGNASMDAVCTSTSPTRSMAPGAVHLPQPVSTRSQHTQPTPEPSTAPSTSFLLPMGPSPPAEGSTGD

[2] = target: T2, Fc tagged mouse TNFR2 (Sino Biological) (mouse, UniProt P25119 23-258); test: phage binding test on Fc tagged receptor
T2 construct: Bought reagent; also called mTNFR2; mTNF2; not shown: Fc tag of the bought protein
T2 sequence (looked up): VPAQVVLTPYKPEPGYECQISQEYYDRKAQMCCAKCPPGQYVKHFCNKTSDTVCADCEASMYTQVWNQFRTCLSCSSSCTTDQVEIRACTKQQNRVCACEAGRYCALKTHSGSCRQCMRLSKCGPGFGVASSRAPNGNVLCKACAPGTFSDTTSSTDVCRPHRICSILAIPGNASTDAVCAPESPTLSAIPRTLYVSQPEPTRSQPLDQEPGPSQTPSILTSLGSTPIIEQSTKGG

[3] = target: T3, Fc tagged human TNFR1 (Sino Biological) (human, UniProt P19438 22-211, limits assumed); test: SPR, Biacore T200 single cycle kinetics, receptor-Fc captured on Protein A chip, TNF 1.67-15 nM
T3 construct: Bought reagent; also called hTNFR1; hTNFR1-Fc; not shown: Fc tag of the bought protein
T3 sequence (looked up): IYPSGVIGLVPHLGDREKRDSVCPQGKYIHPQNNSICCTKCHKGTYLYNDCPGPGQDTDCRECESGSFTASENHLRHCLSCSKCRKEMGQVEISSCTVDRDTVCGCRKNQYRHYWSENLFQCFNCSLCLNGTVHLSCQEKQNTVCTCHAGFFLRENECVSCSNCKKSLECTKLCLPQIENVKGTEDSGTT
Method: (§1) Single cycle kinetic analysis was performed using a Biacore T200 (serial no. 1909913) running Biacore T200 Evaluation Software V2.0.1 (Uppsala, Sweden). All experiments were run at 25° C. with HBS-P+ running buffer (pH 7.4) (GE Healthcare, Little Chalfont, UK).
(§2) Due to the limit in the number of available flow cells for analysis (three Fc per analysis, Fc2, Fc3 and Fc4, with Fc1 always being used as blank reference for non-specific subtraction), receptor binding was assessed in two separate overlapping runs using either: hTNFR1 (Fc2), hTNFR2 (Fc3) and mTNFR1 (Fc4), or; hTNFR1 (Fc2), […] and mTNFR2 (Fc4). Receptors were diluted in running buffer to a concentration of ˜4 μg/mL and at the start of each cycle loaded onto Fc2, Fc3 and Fc4 of a Protein A chip (GE Healthcare, Little Chalfont, UK) at a flow rate of 10 μL/min to give an RU of 40-100. The surface was then allowed to stabilise. Single cycle kinetic data was obtained at a flow rate of 45 μL/min. […] The association phase for the three injections of increasing concentrations of TNF was monitored for 240 seconds and a single dissociation phase was measured for 2700 seconds following the last injection of TNF. Regeneration of the Protein A surface was conducted using 10 mM glycine-HCl pH 1.5. The signal from the reference channel Fc1 (no receptor) was subtracted from that of Fc2, Fc3 and Fc4 to correct for differences in non-specific binding to a reference surface.

[4] = target: T4, Fc tagged mouse TNFR1 (Sino Biological) (mouse, UniProt P25118 22-212, limits assumed); test: as above
T4 construct: Bought reagent; also called mTNFR1; mTNFR1-Fc; not shown: Fc tag of the bought protein
T4 sequence (looked up): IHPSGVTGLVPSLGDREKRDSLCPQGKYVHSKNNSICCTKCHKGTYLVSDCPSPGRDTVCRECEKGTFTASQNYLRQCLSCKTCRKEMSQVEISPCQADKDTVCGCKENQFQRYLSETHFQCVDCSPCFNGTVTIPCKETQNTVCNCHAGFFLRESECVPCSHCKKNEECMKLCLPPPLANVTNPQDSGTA
Method: as §1, §2

[5] = target: T3, Fc tagged human TNFR1 (Sino Biological); test: SPR, Biacore T200 multi cycle kinetics, receptor-Fc captured on Protein A chip, TNF 1.25-40 nM, 1:1 model
Method: (§3) Multi cycle kinetics analysis of binding to hTNFR1, hTNFR2, mTNFR1 and mTNFR2 was performed on the 10 lead variants using a Biacore T200 (serial no. 1909913) instrument running Biacore T200 Evaluation Software V3.0.1 (Uppsala, Sweden) to characterise further the binding to these receptors.
(§4) As with the single cycle kinetics, receptor binding was assessed in two separate experiments. In the first set of experiments binding to hTNFR1 (Fc2), hTNFR2 (Fc3) and mTNFR1 (Fc4) was assessed. In the second set of experiments the extent of mTNF2 (Fc4) binding was assessed using hTNFR1 (Fc2) and hTNFR2 (Fc3) as controls. All receptors were diluted in running buffer to a concentration of ˜4 μg/mL and at the start of each cycle loaded onto Fc2, Fc3 and Fc4 of a Protein A CM5 chip and captured at a flow rate of 10 μL/min to give an RU of ˜40-100. The surface was then allowed to stabilise. All kinetic data was obtained using a flow rate of 75 μl/min to minimise any potential mass transfer effects. […] The association phase of TNF was monitored for 280 seconds and the dissociation phase was measured for 2100 seconds. […] Regeneration of the Protein A surface was conducted using two injections of 10 mM glycine-HCL pH 1.5 at the end of each cycle. The signal from the reference channel Fc1 was subtracted from that of Fc2, Fc3 and Fc4 to correct for differences in non-specific binding to a reference surface, and a global Rmax parameter was used in the 1-to-1 binding model.

[6] = target: T4, Fc tagged mouse TNFR1 (Sino Biological); test: as above
Method: as §3, §4

[7] = target: T1, Fc tagged human TNFR2 (Sino Biological); test: SPR, Biacore T200 multi cycle kinetics, 1:1 model; ** = a residual amount of binding is observed but 1 to 1 model is a poor fit
Method: as §3
as §4, with “The signal from the reference channel Fc1 was subtracted from that of Fc2, Fc3 and Fc4 to correct for differences in non-specific binding to a reference surface, and a global Rmax parameter was used in the 1-to-1 binding model.” left out

[8] = target: T2, Fc tagged mouse TNFR2 (Sino Biological); test: SPR (Biacore T200) single cycle kinetics, Fc-tagged receptor captured on Protein A chip, TNF protein as analyte at 1.67-15 nM
Method: as §1, §2
Controls were used to ensure the integrity of the receptors during the Biacore run.

B1: phage displaying mTNF (gene III fusion, pANT65) (other, mouse, UniProt P06804 80-235, looked up)
chain: LRSSSQNSSDKPVAHVVANHQVEEQLEWLSQRANALLANGMDLKDNQLVVPADGLYLVYSQVLFKGQGCPDYVLLTHTVSRFAISYQEKVNLLSAVKSPCPKDTPEGAELKPWYEPIYLGGVFQLEKGDQLSAEVNLPKYLDFAESGQVYFGVIAL
notes: also called mTNF (phage); not shown: FLAG tag, His6 tag and phage gene III protein of pANT65
binding result [1]: binds
binding result [2]: binds

B2: TNF variant C9 (ligand)
chain: VRSSSRTPSDKPVAHVVANPQAEGQLQWINGRANALLANGVELRDNQLVVPSEGLYLIYSQVLFKGQGCPSTHVLLTHTISRIAVTYQTKVNLLSAIKSPCQRETPEGAEAKPWYEPIYLGGVFQLEKGDRLSAEINRPDYLDDADSGQVYFGIIAL
notes: Human TNF variant from Library 2, AVTYQT at positions 84-89; not shown: C-terminal FLAG tag and His6 tag from vector pANT65
Kd [3]: 0.0248 nM
Kd [4]: 0.607 nM
Kd [5]: 0.0717 nM
Kd [6]: 1.13 nM
Kd [7]: 289 nM
binding result [8]: no binding (tested: 15 nM)
